± gives the standard deviation of the averaged measurements.
B1: library; a variant is named by its letters at X, in order (parent)
chain: MNIQIGELAKRTACPVVTIRFYEQEGLLPPPGRSRGNFRLYGEEHVERLQFIRHCRSLDMPLSXVRTLLSYRKRPDQDCGEVXMLLDEHIRQVESRIGALLELXHHXVELREACSGARPAQSCGILQXLSXCVCXTRGTTAHXSD

Assays:
[1] = variants of: B1; assay: sfGFP reporter fluorescence (15 h) (µM FITC); higher = higher leak; conditions: library round: Round 3; ligand: none
Protocol: (§1)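 Cell-free biosensing: 1 µL Echo-assembled CFE reactions with linear PbrR variant templates (5 nM) and pPbrR-sfGFP reporter, with 1 µM Pb, 30 µM Zn or no ligand; endpoint sfGFP fluorescence after 15 h at 30 °C calibrated as µM FITC. Round 3 ML-predicted PbrR mutants; up to 3 biological replicates.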

[2] = variants of: B1; assay: sfGFP reporter fluorescence (15 h) (µM FITC); higher = stronger transcriptional activation; conditions: library round: Round 3
Protocol: as §1

Variant | sfGFP reporter fluorescence [1] | sfGFP reporter fluorescence ([2]; ligand: 1 µM Pb) | sfGFP reporter fluorescence ([2]; ligand: 30 µM Zn)
DTKLGMPP V108L | 0.0413 ± 0.00089 | 0.144 ± 0.0074 | 0.187 ± 0.0045
TIVLGDDR H106A | 0.0524 ± 0.0029 | 0.448 ± 0.023 | 0.0673 ± 0.0027
DSKLGNRA Q121A | 0.044 ± 0.0012 | 0.209 ± 0.008 | 0.945 ± 0.054
DCKLGADY V16C H106A | 0.0446 ± 0.0041 | 0.232 ± 0.014 | 0.0501 ± 0.00089
DNVCMDDP V16C P61N | 0.092 ± 0.0024 | 0.45 ± 0.015 | 0.463 ± 0.01
DNRLGAPL | 0.0656 ± 0.0041 | 0.262 ± 0.0096 | 0.905 ± 0.11
LCKCGAAP V16C H54C C55P H106L | 0.0465 ± 0.0012 | 0.04402 ± 0.00034 | 0.0492 ± 0.00085
DNKCMDAK P61D | 0.53 ± 0.072 | 0.903 ± 0.12 | 2.24 ± 0.45
KNVCIDDP M60L P61N | 0.453 ± 0.036 | 1.86 ± 0.087 | 2.32 ± 0.15
KNKCTDDP M60L P61N | 2.34 ± 0.2 | 3.48 ± 0.11 | 3.2 ± 0.18
DNRCGAAP | 1.21 ± 0.066 | 2.35 ± 0.047 | 2.34 ± 0.039
KNVLGDDR I90C H106A | 0.0676 ± 0.0026 | 0.502 ± 0.032 | 0.74 ± 0.058
KIVLGDDR L62I | 0.0483 ± 0.0021 | 0.453 ± 0.018 | 0.09962 ± 0.00071
KIVCMDDP | 0.424 ± 0.064 | 1.96 ± 0.25 | 1.78 ± 0.059
DVVLGDDR H106A | 0.043 ± 0.0021 | 0.126 ± 0.007 | 0.0489 ± 0.0029
DNKLGAPY V133A | 0.0571 ± 0.00067 | 0.174 ± 0.0037 | 0.728 ± 0.029
KCVCMDDP V16C | 0.185 ± 0.012 | 1.75 ± 0.16 | 0.434 ± 0.039
DNKLGDDP | 0.0412 ± 0.002 | 0.0516 ± 0.0024 | 0.416 ± 0.055
DNRCIDAK G124A | 0.395 ± 0.042 | 1.51 ± 0.12 | 2.32 ± 0.17
LNKCGAAP H54C C55P H106L | 0.0467 ± 0.0041 | 0.044 ± 0.0032 | 0.0477 ± 0.0034
LIVCGAAP V16C H54C C55P H106A | 0.0452 ± 0.0017 | 0.0428 ± 0.0019 | 0.0456 ± 0.0037
DSKLGMAP V108L | 0.043 | 0.0646 ± 0.004 | 0.354 ± 0.015

Variant | sfGFP reporter fluorescence [1] | sfGFP reporter fluorescence ([2]; ligand: 1 µM Pb) | sfGFP reporter fluorescence ([2]; ligand: 30 µM Zn)
DTKIGDDP V108L E112A | 0.0428 ± 0.0025 | 0.094 ± 0.0043 | 0.294 ± 0.03
KNICMDDP M60L | 2.28 ± 0.1 | 3.14 ± 0.26 | 3.216 ± 0.027
KNKCIDDP M60L P61N | 1.99 ± 0.26 | 3.23 ± 0.31 | 2.88 ± 0.25
KITLGDDR H106A | 0.046 ± 0.001 | 0.452 ± 0.026 | 0.0503 ± 0.0012
DTKCIDAK | 0.305 ± 0.035 | 1.87 ± 0.27 | 2.86 ± 0.33
DNKCGSAY | 0.873 ± 0.033 | 2.1 ± 0.24 | 2.35 ± 0.2
DNKCGADY G124A | 0.267 ± 0.013 | 1.31 ± 0.084 | 2.05 ± 0.041
DTKLGCDP V108L Q121A | 0.043 ± 0.0018 | 0.117 ± 0.0039 | 0.116 ± 0.0027
DTKLGAPL Q121A | 0.0458 ± 0.0015 | 0.245 ± 0.019 | 0.407 ± 0.017
DNKCMDAA D87E | 0.936 ± 0.1 | 2.16 ± 0.15 | 2.28 ± 0.19
DTKLGAPW Q121A | 0.0438 ± 0.0019 | 0.216 ± 0.0053 | 0.277 ± 0.013
DTKCGAAP | 0.264 ± 0.019 | 1.56 ± 0.061 | 2.21 ± 0.16
KNVCGDDP M60L E81A | 2.61 ± 0.12 | 3.41 ± 0.23 | 2.76 ± 0.4
DTKCGADI | 0.227 ± 0.0097 | 1.54 ± 0.036 | 2.16 ± 0.09
KNRCMDDP P61N | 2.26 ± 0.13 | 2.97 ± 0.17 | 2.85 ± 0.064
DNRCMDAK | 1.49 ± 0.11 | 2.51 ± 0.053 | 2.61 ± 0.05
DNRCIDAK | 0.674 ± 0.12 | 1.93 ± 0.22 | 2.51 ± 0.34
DNRCIDDP M60L P61N | 0.808 ± 0.044 | 1.53 ± 0.025 | 2.29 ± 0.32
DTKLGSDP V108L H142A | 0.0396 ± 0.00089 | 0.076 ± 0.0048 | 0.278 ± 0.029
DSKLGAPW | 0.043 ± 0.0014 | 0.138 ± 0.012 | 0.227 ± 0.025
DTKCIDAP I125L | 0.059 ± 0.0049 | 0.0617 ± 0.0061 | 0.614 ± 0.022
KFVLGDDP I90A H106A | 0.0469 ± 0.002 | 0.441 ± 0.013 | 0.0549 ± 0.0013

Variant | sfGFP reporter fluorescence [1] | sfGFP reporter fluorescence ([2]; ligand: 1 µM Pb) | sfGFP reporter fluorescence ([2]; ligand: 30 µM Zn)
DTKLGSPL | 0.0411 ± 0.0014 | 0.1583 ± 0.0015 | 0.196 ± 0.019
DTKLGSPP V108L Q121A | 0.0413 ± 0.00089 | 0.2 ± 0.0066 | 0.337 ± 0.004
DSKLGHPY | 0.0395 ± 0.00071 | 0.112 ± 0.007 | 0.234 ± 0.033
DNVLGDDY H54A H142C | 0.0421 ± 0.0015 | 0.0519 ± 0.0017 | 0.136 ± 0.0031
KNKCSDDP M60L P61N | 2.09 ± 0.17 | 3.3 ± 0.17 | 3.18 ± 0.21
DTKLGCDL Q121A | 0.0413 ± 0.00047 | 0.101 ± 0.0031 | 0.103 ± 0.0093
DNKLHAPW L101V | 0.06686 ± 0.00034 | 0.307 ± 0.028 | 1.11 ± 0.06
DNRLHCDL E109L | 0.0447 ± 0.0052 | 0.094 ± 0.0039 | 0.23 ± 0.0064
DTKCGCDA | 0.126 ± 0.0021 | 1.6 ± 0.12 | 1.51 ± 0.051
DNKCGAAP H54C C55A | 0.912 ± 0.075 | 1.67 ± 0.091 | 1.92 ± 0.15
KIVLGDDR H106E | 0.0556 ± 0.0015 | 0.573 ± 0.037 | 0.0612 ± 0.0023
LIKLGDDP V16C M60V E81A R111A | 0.0752 ± 0.0081 | 0.0783 ± 0.012 | 0.0505 ± 0.0042
KNVCMDDP V16C P61N | 0.0997 ± 0.0099 | 0.636 ± 0.067 | 0.579 ± 0.061
KFVLGDDP P61T H106A | 0.0442 ± 0.0014 | 0.0637 ± 0.0021 | 0.0488 ± 0.0034
KNKCMDDP M60L P61D | 3.01 ± 0.32 | 3.17 ± 0.26 | 3.28 ± 0.24
DTKLGSPP V108L | 0.0404 ± 0.0007 | 0.127 ± 0.0092 | 0.186 ± 0.0066
DNRCMDAK D87E | 1.06 ± 0.069 | 2.46 ± 0.12 | 2.56 ± 0.13
LILCGAAC V16C H54C C55P H106A | 0.0452 ± 0.0039 | 0.0421 ± 0.0021 | 0.0492 ± 0.0021
DNVCIDDA M60L | 0.73 ± 0.014 | 2.2 ± 0.24 | 2.23 ± 0.2
KFVLGDDA H106A | 0.0507 ± 0.0013 | 0.541 ± 0.028 | 0.104 ± 0.0043
DCKVGDDP V82I L85M | 0.0458 ± 0.0022 | 0.329 ± 0.034 | 0.128 ± 0.0044
KTVLIDDP P61T | 0.0467 ± 0.002 | 0.106 ± 0.0053 | 0.251 ± 0.023

Variant | sfGFP reporter fluorescence [1] | sfGFP reporter fluorescence ([2]; ligand: 1 µM Pb) | sfGFP reporter fluorescence ([2]; ligand: 30 µM Zn)
DTKCMDAP G124A | 0.212 ± 0.015 | 1.58 ± 0.084 | 2.41 ± 0.38
DTKLGHPY Q121A | 0.0423 ± 0.0015 | 0.206 ± 0.019 | 0.289 ± 0.021
KNKLGDAP P61N L62I V108E | 0.0795 ± 0.0049 | 0.275 ± 0.019 | 1.08 ± 0.098
DNKCGADY M60L | 1.36 ± 0.092 | 1.92 ± 0.1 | 2.58 ± 0.11
KFVLGDDR H106N | 0.0633 ± 0.0012 | 1.16 ± 0.054 | 0.2633 ± 0.0014
DNKCMDAK G124A | 0.531 ± 0.049 | 2.11 ± 0.15 | 2.65 ± 0.21
KFVLGDDT H106A | 0.0446 ± 0.0026 | 0.549 ± 0.023 | 0.095 ± 0.0055
KNMCMDDP P61N | 1.45 ± 0.17 | 2.43 ± 0.21 | 2.66 ± 0.22
DTKLGDAL Q121A | 0.04099 ± 0.00034 | 0.104 ± 0.004 | 0.329 ± 0.015
LILCGAAC V16C H54C C55P E81A H106A | 0.0437 ± 0.0031 | 0.0414 ± 0.0022 | 0.0463 ± 0.0019
DTKLGSDP Q121A H142A | 0.0408 ± 0.0014 | 0.106 ± 0.0044 | 0.472 ± 0.015
DTKLGAPW V108L | 0.0408 ± 0.002 | 0.146 ± 0.0032 | 0.1781 ± 0.0015
DNVCMDDP Y41F P61N | 0.828 ± 0.023 | 2.98 ± 0.34 | 2.92 ± 0.049
DNKCIDAK M84A G124A | 0.548 ± 0.043 | 2.01 ± 0.13 | 2.75 ± 0.23
DSKLGSPP V108L | 0.0407 ± 0.0012 | 0.121 ± 0.0045 | 0.247 ± 0.0044
KNKCGADP M60L P61N | 2.59 ± 0.17 | 2.95 ± 0.29 | 2.51 ± 0.32
LIKCGAAP H54C C55P H106L | 0.0448 ± 0.0034 | 0.0419 ± 0.0013 | 0.0486 ± 0.0017
LIVCGAAP H54C C55P H106L | 0.0444 ± 0.0015 | 0.0432 ± 0.00085 | 0.0495 ± 0.0022
KNVCMDDP M60L | 3.21 ± 0.26 | 3.58 ± 0.098 | 3.18 ± 0.16
DNKCGAAY | 1.05 ± 0.072 | 2.12 ± 0.14 | 2.26 ± 0.041
KNVCMDDP E81A | 2.21 ± 0.21 | 3.01 ± 0.4 | 2.71 ± 0.34
TTKCGDRP | 1.83 ± 0.057 | 2.37 ± 0.091 | 2.74 ± 0.22

From the supplement of paper PMC12783771
